Data as given in patent publication US20040037820A1 (published 2004).

Target: T1, VEGFR-3 full-length extracellular domain (Homo sapiens (Human), UniProt P35916 25-775)
T1 construct: the construct is not described; also called the full-length extracellular domain
T1 sequence: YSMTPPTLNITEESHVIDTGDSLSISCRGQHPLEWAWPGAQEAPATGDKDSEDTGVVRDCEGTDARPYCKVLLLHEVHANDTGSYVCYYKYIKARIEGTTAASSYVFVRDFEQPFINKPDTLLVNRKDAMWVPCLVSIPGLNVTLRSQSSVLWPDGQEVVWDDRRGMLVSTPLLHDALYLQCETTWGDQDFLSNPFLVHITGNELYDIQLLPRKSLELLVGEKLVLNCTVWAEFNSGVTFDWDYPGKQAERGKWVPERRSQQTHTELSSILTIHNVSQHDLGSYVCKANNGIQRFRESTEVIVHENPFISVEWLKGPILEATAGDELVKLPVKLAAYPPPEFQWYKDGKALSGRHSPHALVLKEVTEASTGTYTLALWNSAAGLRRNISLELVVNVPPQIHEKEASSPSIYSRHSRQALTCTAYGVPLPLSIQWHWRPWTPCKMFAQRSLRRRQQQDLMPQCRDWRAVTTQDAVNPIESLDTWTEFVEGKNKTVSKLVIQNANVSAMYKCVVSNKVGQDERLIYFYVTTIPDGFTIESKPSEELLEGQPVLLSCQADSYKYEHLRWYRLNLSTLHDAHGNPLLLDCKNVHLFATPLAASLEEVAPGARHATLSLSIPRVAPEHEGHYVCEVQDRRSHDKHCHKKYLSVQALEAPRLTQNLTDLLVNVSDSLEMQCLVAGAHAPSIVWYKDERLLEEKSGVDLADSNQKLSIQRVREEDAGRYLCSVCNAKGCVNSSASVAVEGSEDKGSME
Experiment: not described

B1: VEGF-D (ligand)
chain: FYDIETLKVIDEEWQRTQCSPRETCVEVASELGKSTNTFFKPPCVNVFRCGGCCNEESLICMNTSTSYISKQLFEISVPLTSVPELVPVKVANHTGCKCLPTAPRHPYS
notes: Bought protein; also called vascular endothelial growth factor D
  binding result: binds
